Common to all, as to experiment: SPR; cytokine immobilised on ProteOn GLH sensor chip by amine coupling (9,000-14,000 RU); S100P (wild type or mutant) as analyte, 62 nM-16 µM; 25 °C; 10 mM HEPES, 150 mM NaCl, 1 mM CaCl2, 0.05% TWEEN 20, pH 7.4; heterogeneous ligand model (two ligand populations), one-site model for IL-13; values averaged over analyte concentrations (n = 3-5)
Settings in all cases: both partners purified
Background: In SPR one partner is held on a chip, and binding of the other changes the refractive index at the surface.

The target in one assay is T1, Interleukin-21 (human, UniProt Q9HBE4 25-162).
T1 construct: Interleukin-21, human, UniProt Q9HBE4; see the manufacturer's catalogue number; also called IL-21; source: bought: PeproTech (source E. coli)

A further assay deals with T2, Prolactin (human, UniProt P01236 29-227).
T2 construct: Prolactin, human, UniProt P01236; see the manufacturer's catalogue number; also called PRL; source: bought: PeproTech (source E. coli)
T2 sequence (looked up): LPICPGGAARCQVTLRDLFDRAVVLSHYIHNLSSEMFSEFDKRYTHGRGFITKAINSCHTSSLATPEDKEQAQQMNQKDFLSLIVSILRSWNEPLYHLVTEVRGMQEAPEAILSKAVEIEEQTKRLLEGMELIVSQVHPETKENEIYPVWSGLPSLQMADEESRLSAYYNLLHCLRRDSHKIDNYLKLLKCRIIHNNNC

The target in the next assay is T3, Leptin (human, UniProt P41159 22-167).
T3 construct: Leptin, human, UniProt P41159; see the manufacturer's catalogue number; source: bought: PeproTech (source E. coli)

Assay [1] has as its target T4, Interleukin-15 (human, UniProt P40933 49-162).
T4 construct: Interleukin-15, human, UniProt P40933; see the manufacturer's catalogue number; also called IL-15; source: bought: PeproTech (source E. coli)

The target in another assay is T5, Interleukin-27 (human, UniProt Q8NEV9 29-243; Q14213 21-229).
T5 construct: the chain used for the SCOP family assignment; also called IL-27; source: bought: PeproTech (source HEK293)
T5 sequence (looked up) 1: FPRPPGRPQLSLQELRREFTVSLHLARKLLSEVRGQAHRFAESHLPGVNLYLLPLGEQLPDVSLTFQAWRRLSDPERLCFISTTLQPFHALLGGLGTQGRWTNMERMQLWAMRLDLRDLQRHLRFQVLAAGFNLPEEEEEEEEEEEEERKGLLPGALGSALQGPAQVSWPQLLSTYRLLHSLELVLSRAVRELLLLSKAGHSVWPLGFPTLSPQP
T5 sequence (looked up) 2: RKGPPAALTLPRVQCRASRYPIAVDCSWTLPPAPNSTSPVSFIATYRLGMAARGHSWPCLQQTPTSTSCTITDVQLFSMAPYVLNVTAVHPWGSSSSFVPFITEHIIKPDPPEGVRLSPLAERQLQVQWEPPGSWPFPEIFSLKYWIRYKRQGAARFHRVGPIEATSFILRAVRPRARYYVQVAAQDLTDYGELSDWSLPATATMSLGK

For another assay, the target named is T6, Interleukin-5 (human, UniProt P05113 20-134).
T6 construct: Interleukin-5, human, UniProt P05113; also called IL-5; source: bought: PeproTech (source E. coli)

Assay [2] concerns the target T4, Interleukin-15. The source holds these as a separate data set.

The values below come from paper PMC9569990 (International Journal of Molecular Sciences, 2022).

Some results are limits rather than exact numbers.

T1 sequence (Q9HBE4 25-162): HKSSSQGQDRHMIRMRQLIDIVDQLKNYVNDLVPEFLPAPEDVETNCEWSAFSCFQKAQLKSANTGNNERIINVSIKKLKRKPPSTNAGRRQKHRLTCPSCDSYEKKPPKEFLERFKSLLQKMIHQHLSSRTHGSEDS
T6 sequence (P05113 20-134): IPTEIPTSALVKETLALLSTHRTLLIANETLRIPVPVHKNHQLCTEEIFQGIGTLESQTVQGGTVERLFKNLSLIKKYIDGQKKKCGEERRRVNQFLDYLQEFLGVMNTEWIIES
T4 sequence (P40933 49-162): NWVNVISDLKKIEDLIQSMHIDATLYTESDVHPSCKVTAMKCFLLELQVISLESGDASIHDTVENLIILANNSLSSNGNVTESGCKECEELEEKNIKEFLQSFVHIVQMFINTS
T3 sequence (P41159 22-167): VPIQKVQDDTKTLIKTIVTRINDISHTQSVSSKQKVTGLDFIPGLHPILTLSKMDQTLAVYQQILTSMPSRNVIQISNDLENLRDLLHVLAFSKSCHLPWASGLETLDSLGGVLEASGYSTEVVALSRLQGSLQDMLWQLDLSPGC

B1: Human S100P mutant Δ42–47 (lacks PGFLQS sequence in the 'hinge') (natural protein)
chain: MTELETAMGMIIDVFSRYSGSEGSTQTLTKGELKVLMEKELGKDKDAVDKLLKDLDANGDAQVDFSEFIVFVAAITSACHKYFEKAGLK
notes: S100P protein, human, recombinant, with residues 42-47 (PGFLQS) deleted; source: E. coli, prepared as previously described [28]
Turning to B1, the equilibrium dissociation constant (Kd) with Interleukin-21, with Prolactin, with Leptin and in the assay with Interleukin-15 [1] was above 100 µM throughout.

B2: Human S100P protein (recombinant, Ca^2+-loaded) (natural protein)
chain: MTELETAMGMIIDVFSRYSGSEGSTQTLTKGELKVLMEKELPGFLQSGKDKDAVDKLLKDLDANGDAQVDFSEFIVFVAAITSACHKYFEKAGLK
notes: S100P protein, human, recombinant; probably the whole 95-residue protein (surmise); also called wild-type S100P; WT S100P; source: E. coli, prepared as previously described [28]
Consider B2, for which, in the assay with Interleukin-27, the “Kd1 (heterogeneous ligand model, population 1)” value stood at 859 nM; the “Kd2 (heterogeneous ligand model, population 2)” value was found to be 1.69 µM; the “kd1 (heterogeneous ligand model, population 1)” value amounted to 0.00994 s⁻¹; the “kd2 (heterogeneous ligand model, population 2)” value came out at 0.000357 s⁻¹. Moreover, in the assay with Interleukin-5, the “Kd1 (heterogeneous ligand model, population 1)” value is 3.66 nM; the “Kd2 (heterogeneous ligand model, population 2)” value was determined as 833 nM; the “kd1 (heterogeneous ligand model, population 1)” value worked out at 0.000612 s⁻¹; the “kd2 (heterogeneous ligand model, population 2)” value came to 0.00712 s⁻¹. In the assay with Interleukin-15 [2], the “Kd1 (heterogeneous ligand model, population 1)” value was found to be 102 nM; the “Kd2 (heterogeneous ligand model, population 2)” value turned out to be 980 nM; the “kd1 (heterogeneous ligand model, population 1)” value was determined as 0.00109 s⁻¹; the “kd2 (heterogeneous ligand model, population 2)” value was 0.0272 s⁻¹.

B3: Human S100P mutant F89A (natural protein)
chain: MTELETAMGMIIDVFSRYSGSEGSTQTLTKGELKVLMEKELPGFLQSGKDKDAVDKLLKDLDANGDAQVDFSEFIVFVAAITSACHKYAEKAGLK
notes: S100P protein, human, recombinant, with F89A; source: E. coli, prepared as previously described [28]
B3: the “Kd1 (heterogeneous ligand model, population 1)” value was 401 nM with Interleukin-21, 689 nM with Prolactin, 4.37 µM with Leptin and 157 nM with Interleukin-15 [1]. For the same molecule, the “Kd2 (heterogeneous ligand model, population 2; column head printed as Kd1)” value with Interleukin-21 was determined as 950 nM; with Prolactin, 3.12 µM; in the assay with Leptin, 35.7 µM; with Interleukin-15 [1] it was 283 nM.
